According to the RNAGym collection of RNA variant scans (doi:10.7554/elife.80360):

B1: Hairpin Ribozyme (parent)
chain: GUCCUCUUUCACGUGCGCGUGAAAGAGAGAAGUGAACCAGAGAAACACACGUUGUGGUAUAUUACCUGGUA

Variants of: B1
Assay: self-cleavage, relative activity (ratio to wild type); higher = more cleavage; co-transcriptional

Which self-cleavage does the source give for GUCCUCUUUCACAUGCGCGUGAAAGAGAGAAGUGAACCAGAGAAACACCCGUUGUGGUAUAUUACCUGGUA [G13A A49C] here?
Its self-cleavage is 0.102.

Which self-cleavage does the source give for GUCCUCUUUCACAUGCGCGUGAAAGAUAGAAGUGAACCAGAGAAACACACGUUGUGGUAUAUUACCUGGUA [G13A G27U] here?
Its self-cleavage is 0.257.

With GUCCUCUUUCACAUGCGCGUGAAAGAGAGAAGUGAACCAGAGAAACACACGUUGUGGUAUAUUACCUGGGA [G13A U70G] as the variant, how does the self-cleavage read?
Its self-cleavage is 0.629.

For GUCCUCUUUCACAUGCGCGUGAAAGAGAGAAGUGAACCAGAGAAACACACGUUGUGGUAUAUUACCUGGAA [G13A U70A], which self-cleavage is on record?
Its self-cleavage is 0.735.

Which self-cleavage does the source give for GUCCUCUUUCACCUGCGCGUGAAAGAGAGAAGUGAACCUGAGAAACACACGUUGUGGUAUAUUACCUGGUA [G13C A39U] here?
The self-cleavage was 0.289.

For GUCCUCUUUCACAUGCGCGUGAAAGAGAGAAGUGAACCUGAGAAACACACGUUGUGGUAUAUUACCUGGUA [G13A A39U], which self-cleavage is on record?
Its self-cleavage is 0.32.

Which self-cleavage does the source give for GUCCUCUUUCACAUGCGCGUGAAAGAGAGAAGUGAACCCGAGAAACACACGUUGUGGUAUAUUACCUGGUA [G13A A39C] here?
The self-cleavage was 0.446.

With GUCCUCUUUCACCUGCGCGUGAAAGAGAGAAGUGAACCAGCGAAACACACGUUGUGGUAUAUUACCUGGUA [G13C A41C] as the variant, how does the self-cleavage read?
The self-cleavage was 0.892.

For GUCCUCUUUCACCUGCGCGUGAAAGAGAGAAGUGAACCAGGGAAACACACGUUGUGGUAUAUUACCUGGUA [G13C A41G], which self-cleavage is on record?
The self-cleavage was 0.498.

Which self-cleavage does the source give for GUCCUCUUUCACCUGCGCGUGAAAGAGAGAAGUGAACCAGUGAAACACACGUUGUGGUAUAUUACCUGGUA [G13C A41U] here?
The self-cleavage was 0.819.

With GUCCUCUUUCACCUGCGCGUGAAAGAGGGAAGUGAACCAGAGAAACACACGUUGUGGUAUAUUACCUGGUA [G13C A28G] as the variant, how does the self-cleavage read?
Its self-cleavage is 0.85.

Which self-cleavage does the source give for GUCCUCUUUCACCUGCGCGUGAAAGAGUGAAGUGAACCAGAGAAACACACGUUGUGGUAUAUUACCUGGUA [G13C A28U] here?
The self-cleavage was 0.252.

For GUCCUCUUUCACAUGCGCGUGAAAGCGAGAAGUGAACCAGAGAAACACACGUUGUGGUAUAUUACCUGGUA [G13A A26C], which self-cleavage is on record?
Its self-cleavage is 0.556.

With GUCCUCUUUCACAUGCGCGUGAAAGUGAGAAGUGAACCAGAGAAACACACGUUGUGGUAUAUUACCUGGUA [G13A A26U] as the variant, how does the self-cleavage read?
Its self-cleavage is 0.529.

For GUCCUCUUUCACAUGCGCGUGAAAGGGAGAAGUGAACCAGAGAAACACACGUUGUGGUAUAUUACCUGGUA [G13A A26G], which self-cleavage is on record?
The self-cleavage was 0.778.

For GUCCUCUUUCACAUGCGCGUGAAAGAGAGAAGUGAACCAGAGAAACACACGUUAUGGUAUAUUACCUGGUA [G13A G54A], which self-cleavage is on record?
The self-cleavage was 0.443.

Which self-cleavage does the source give for GUCCUCUUUCACAUGCGCGUGAAAGAGAGAAGUGAACCAGAGAAACACACGUUGUGGUAUAUUAUCUGGUA [G13A C65U] here?
The self-cleavage was 0.285.

For GUCCUCUUUCACAUGCGCGUGAAAGAGAGAUGUGAACCAGAGAAACACACGUUGUGGUAUAUUACCUGGUA [G13A A31U], which self-cleavage is on record?
Its self-cleavage is 0.202.

With GUCCUCUUUCACAUGCGCGUGAAAGAGAAAAGUGAACCAGAGAAACACACGUUGUGGUAUAUUACCUGGUA [G13A G29A] as the variant, how does the self-cleavage read?
Its self-cleavage is 0.167.

With GUCCUCUUUCACAUGCGCGUGAAAGAGACAAGUGAACCAGAGAAACACACGUUGUGGUAUAUUACCUGGUA [G13A G29C] as the variant, how does the self-cleavage read?
Its self-cleavage is 0.153.

Which self-cleavage does the source give for GUCCUCUUUCACAUGCGCGUGUAAGAGAGAAGUGAACCAGAGAAACACACGUUGUGGUAUAUUACCUGGUA [G13A A22U] here?
The self-cleavage was 0.748.

For GUCCUCUUUCACAUGCGCGUGAAAGAGAGAAGUGAACCAGAGAAACACACUUUGUGGUAUAUUACCUGGUA [G13A G51U], which self-cleavage is on record?
Its self-cleavage is 0.821.

For GUCCUCUUUCACAUGCGCGUGAAAGAGAGAAGUGAACCAGAGAAACACACAUUGUGGUAUAUUACCUGGUA [G13A G51A], which self-cleavage is on record?
Its self-cleavage is 0.87.

Which self-cleavage does the source give for GUCCUCUUUCACAUGCGCGUGAAACAGAGAAGUGAACCAGAGAAACACACGUUGUGGUAUAUUACCUGGUA [G13A G25C] here?
The self-cleavage was 0.36.

Which self-cleavage does the source give for GUCCUCUUUCACCUGCGCGUGAAAGAGAGCAGUGAACCAGAGAAACACACGUUGUGGUAUAUUACCUGGUA [G13C A30C] here?
Its self-cleavage is 0.112.

Which self-cleavage does the source give for GUCCUCUUUCACAUGCUCGUGAAAGAGAGAAGUGAACCAGAGAAACACACGUUGUGGUAUAUUACCUGGUA [G13A G17U] here?
Its self-cleavage is 0.656.

Which self-cleavage does the source give for GUCCUCUUUCACAUGCGCGAGAAAGAGAGAAGUGAACCAGAGAAACACACGUUGUGGUAUAUUACCUGGUA [G13A U20A] here?
Its self-cleavage is 0.716.

Which self-cleavage does the source give for GUCCUCUUUCACAUGCGCGGGAAAGAGAGAAGUGAACCAGAGAAACACACGUUGUGGUAUAUUACCUGGUA [G13A U20G] here?
The self-cleavage was 0.723.

For GUCCUCUUUCACCUGCGCGUGAAAGCGAGAAGUGAACCAGAGAAACACACGUUGUGGUAUAUUACCUGGUA [G13C A26C], which self-cleavage is on record?
The self-cleavage was 0.403.

Which self-cleavage does the source give for GUCCUCUUUCACAUGCGCGUGAAAGAGAGAAGUGAACCAGAGAAACGCACGUUGUGGUAUAUUACCUGGUA [G13A A47G] here?
The self-cleavage was 0.185.

With GUCCUCUUUCACAUGCGCGUGAAAGAGAGAAGUGAACCAGAGAAACCCACGUUGUGGUAUAUUACCUGGUA [G13A A47C] as the variant, how does the self-cleavage read?
Its self-cleavage is 0.352.

With GUCCUCUUUCACCUGCGCGUGAAAGAGAGAAGUGCACCAGAGAAACACACGUUGUGGUAUAUUACCUGGUA [G13C A35C] as the variant, how does the self-cleavage read?
The self-cleavage was 0.717.

With GUCCUCUUUCACAUGCGCAUGAAAGAGAGAAGUGAACCAGAGAAACACACGUUGUGGUAUAUUACCUGGUA [G13A G19A] as the variant, how does the self-cleavage read?
Its self-cleavage is 0.806.

Which self-cleavage does the source give for GUCCUCUUUCACAUGCGCGUCAAAGAGAGAAGUGAACCAGAGAAACACACGUUGUGGUAUAUUACCUGGUA [G13A G21C] here?
Its self-cleavage is 0.862.

With GUCCUCUUUCACAUGCGCGUAAAAGAGAGAAGUGAACCAGAGAAACACACGUUGUGGUAUAUUACCUGGUA [G13A G21A] as the variant, how does the self-cleavage read?
The self-cleavage was 0.594.

For GUCCUCUUUCACAUGCGCGUGAAAGAGAGAAGUGAACCAGAGAAUCACACGUUGUGGUAUAUUACCUGGUA [G13A A45U], which self-cleavage is on record?
The self-cleavage was 0.0732.

With GUCCUCUUUCACAUGCGCGUGAAAGAGAGAAGUGAACCAGAGAACCACACGUUGUGGUAUAUUACCUGGUA [G13A A45C] as the variant, how does the self-cleavage read?
Its self-cleavage is 0.135.

With GUCCUCUUUCACAUGCGCGUGAAAGAGAGAAGUGAACCAGAGAAACACACGUUGGGGUAUAUUACCUGGUA [G13A U55G] as the variant, how does the self-cleavage read?
Its self-cleavage is 0.112.
